Here are results for one molecule from patent EP2033655B1.

Ends that are not written are not given here.

The target of this assay is Cell-surface expressed nucleolin (on THP-1 monocytic cells; on HeLa P4 cells) (human), P19338. Put plainly: cell-based or functional assay.
Sequence of Cell-surface expressed nucleolin (on THP-1 monocytic cells; on HeLa P4 cells) (human), P19338 (P19338 2-710 limits assumed): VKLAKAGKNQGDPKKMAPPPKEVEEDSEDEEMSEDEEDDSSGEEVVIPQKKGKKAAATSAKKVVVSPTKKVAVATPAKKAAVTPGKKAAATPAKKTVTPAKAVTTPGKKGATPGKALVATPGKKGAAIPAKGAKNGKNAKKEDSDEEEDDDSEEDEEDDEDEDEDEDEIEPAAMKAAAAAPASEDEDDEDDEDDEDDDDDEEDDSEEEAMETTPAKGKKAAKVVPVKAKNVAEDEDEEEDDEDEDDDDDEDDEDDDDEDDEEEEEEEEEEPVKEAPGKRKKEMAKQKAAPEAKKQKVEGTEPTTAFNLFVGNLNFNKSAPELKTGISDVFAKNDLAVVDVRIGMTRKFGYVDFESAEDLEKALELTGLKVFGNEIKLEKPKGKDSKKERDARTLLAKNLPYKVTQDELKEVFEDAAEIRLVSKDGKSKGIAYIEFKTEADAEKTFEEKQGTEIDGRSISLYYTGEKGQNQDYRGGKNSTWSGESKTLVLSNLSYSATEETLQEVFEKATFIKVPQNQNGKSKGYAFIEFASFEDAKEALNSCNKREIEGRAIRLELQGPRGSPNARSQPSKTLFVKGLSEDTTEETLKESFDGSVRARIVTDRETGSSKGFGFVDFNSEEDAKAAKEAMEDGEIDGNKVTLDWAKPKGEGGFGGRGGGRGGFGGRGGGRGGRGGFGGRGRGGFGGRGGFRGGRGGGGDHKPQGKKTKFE

B1: HB-19 pseudopeptide, 5[Lys (CH2N)Pro-Arg]-template-assembled synthetic peptide (peptide)
chain: KKKGPKEK
peptide: Lys-Pro-Arg
modifications: also: Lys (CH2N)Pro reduced bond, five Lys-Pro-Arg units assembled on template
In turn, B1 gave a level of infection of THP-1 cells, HB-19 together with anti-CR3 Mab of 95%.
